Experimental findings from paper PMC11045720 are described below.

Assay [1] has as its target Alcohol dehydrogenase from baker's yeast (baker's yeast) (UniProt P00330). Put plainly: cross-linking; DSBU at 25:1 to 1000:1 molar excess on 1 mg/mL protein, 45 min at room temperature (20 °C), quenched with Tris HCl; read by denaturing mass photometry (5 min in 5.4 M urea) and SDS-PAGE.
For assay [2] the target is unchanged. As to the kind of experiment: mass photometry (native, nMP); samples diluted in their native buffer to 100-400 nM, then drop-diluted to 10-40 nM in a PBS droplet; room temperature (18 °C); triplicates.
For assay [3], the target named is Human 20 S proteasome (human). Put plainly: cross-linking; formaldehyde 0.05% to 1% (vol/vol) on 1 mg/mL protein, 20 min at room temperature; read by denaturing mass photometry.
Assay [4] deals with Human 20 S proteasome (human). As to the kind of experiment: mass photometry (native, nMP); samples diluted in their native buffer to 100-400 nM, then drop-diluted to 10-40 nM in a PBS droplet; room temperature (18 °C); triplicates.

Take “Alcohol dehydrogenase from baker's yeast (from UniProt P00330 1-348) (enzyme)”: the stoichiometry N in assay [1] came out at 4. In assay [2], this substance displayed a percent of detected species that are monomers (nMP) of 46% and a stoichiometry N of 4.
Turning to Human 20 S proteasome (complex), the stoichiometry N in assay [3] and in assay [4] was 28 throughout. The same substance had a percent of detected species that are monomers (nMP) in assay [4] of 51%.

Usually stoichiometry N stands for the number of molecules, sites or subunits per partner or assembly.
